Source: publication PMC9700832

How the values were obtained:
[1] = target: Bacillus thuringiensis serovar israelensis LexA (B. thuringiensis serovar israelensis); assay: SPR; LexA immobilised on a CM5 chip (1200 to 1300 RU); analytes in three-fold dilutions (6-1458 nM), 180 s at 30 uL/min, 25 °C; 20 mM HEPES pH 7.4, 150 mM NaCl, 3 mM EDTA, 0.1 mg/mL BSA, 0.005% P20; apparent KD from steady-state affinity fits, two titrations
[2] = target: Staphylococcus aureus LexA (S. aureus); assay: as above
[3] = target: Staphylococcus aureus LexA (S. aureus); assay: SPR; […] (6-1458 nM), 180 s at 30 uL/min, 25 °C; 20 mM HEPES pH 7.4, 150 mM NaCl, 3 mM EDTA, 0.1 mg/mL BSA, 0.005% P20; […]

| Substance | Kd [2] | other results |
| --- | --- | --- |
| Bacillus thuringiensis uncharacterized protein M1QNS5 (natural protein) | – | Kd [1]: 365 nM |
| Staphylococcus aureus nucleoid-associated protein HU, purified recombinant (from UniProt Q5HFV0 1-90) (natural protein) | 843 nM | – |
| gp7 of bacteriophage GIL01 (natural protein) | 298 nM | – |
| tectiviral gp7 homolog from the phage found in Bacillus cereus HuB13-1 (natural protein) | 787 nM | – |
| tectiviral gp7 homolog from the phage found in Bacillus cereus VD184 (natural protein) | 381 nM | – |
| tectiviral gp7 homolog from the phage found in Bacillus thuringiensis serovar aizawai (natural protein) | 302 nM | – |
| tectiviral gp7 homolog of Bacillus anthracis phage AP50 (natural protein) | – | Kd [3]: 446 nM |
| tectiviral gp7 homolog of Bacillus mycoides VDm034 phage Lima (natural protein) | – | Kd [3]: 331 nM |
